Where two headings read alike, the source gives them in different places.
How the values were obtained:
[1] = target: Clone 4 (C4), monomeric IgG4 Fc with YTE; test: BLI; Octet384; binding of inactive IdeS (C94S) to Fc; who was immobilised not told
[2] = target: T1, Recombinant human FcRn (soluble) (human, UniProt P55899 24-297; P61769 21-119, biotin (biotinylated FcRn; which chain and site not stated)); test: BLI; Octet384; biotinylated FcRn captured on streptavidin biosensors, Fc variants in solution; 100 mM MES pH 6.0, 3 mg/ml BSA, 0.05% Tween 20; steady-state analysis, apparent KD, avidity binding format
[3] = target: T1, Recombinant human FcRn (soluble); test: cell-based or functional assay

T1 sequence (P55899 24-297, chain 1 of 2): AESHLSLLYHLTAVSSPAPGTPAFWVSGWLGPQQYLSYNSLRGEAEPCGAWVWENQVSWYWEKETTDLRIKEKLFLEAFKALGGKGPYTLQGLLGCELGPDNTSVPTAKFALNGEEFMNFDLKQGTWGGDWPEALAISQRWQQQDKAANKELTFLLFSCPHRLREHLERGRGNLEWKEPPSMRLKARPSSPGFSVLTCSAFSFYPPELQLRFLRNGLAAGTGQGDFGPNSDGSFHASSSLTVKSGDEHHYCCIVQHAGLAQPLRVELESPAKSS
T1 sequence (P61769 21-119, chain 2 of 2): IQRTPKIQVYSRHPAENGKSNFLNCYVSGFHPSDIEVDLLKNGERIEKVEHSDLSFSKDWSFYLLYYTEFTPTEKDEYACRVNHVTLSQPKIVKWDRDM

| Molecule | Kd [2] [nM] | other results |
| --- | --- | --- |
| Inactive form of IgG-degrading enzyme of S. pyogenes (IdeS, C94S) |  | Kd [1]: 3000 nM |
| IgG1 mAb control (antibody) | 270 |  |
| IgG4 wildtype Fc (domain or fragment) | 140 |  |
| IgG1 YTE (antibody) | 39 |  |
| Onart-Fab-C4 (Fab of Onartuzumab fused to monomeric Fc C4) (Fc fusion) chain 1: EVQLVESGGGLVQPGGSLRLSCAASGYTFTSYWLHWVRQAPGKGLEWVGMIDPSNSDTRFNPNFKDRFTISADTSKNTAYLQMNSLRAEDTAVYYCATYRSYVTPLDYWGQGTLVTVSSASTKGPSVFPLAPSSKSTSGGTAALGCLVKDYFPEPVTVSWNSGALTSGVHTFPAVLQSSGLYSLSSVVTVPSSSLGTQTYICNVNHKPSNTKVDKKVEPKSCPEFLGGPSVFLFPPKPKDTLYITREPEVTCVVVDVSQEDPEVQFNWYVDGVEVHNAKTKPREEQFNSTYRVVSVLTVLHQDWLNGKEYKCKVSNKGLPSSIEKTISKAKGQPREPQVYTFPPSQEEMTKNQVSLRCLVKGFYPSDIAVEWESNGQPENNYKTTKPVLDSDGSFRLESRLTVDKSRWQEGNVFSCSVMHEALHNHYTQKSLSLSLGK chain 2: DIQMTQSPSSLSASVGDRVTITCKSSQSLLYTSSQKNYLAWYQQKPGKAPKLLIYWASTRESGVPSRFSGSGSGTDFTLTISSLQPEDFATYYCQQYYAYPWTFGQGTKVEIKRTVAAPSVFIFPPSDEQLKSGTASVVCLLNNFYPREAKVQWKVDNALQSGNSQESVTEQDSKDSTYSLSSTLTLSKADYEKHKVYACEVTHQGLSSPVTKSFNRGEC |  | terminal half-life (T1/2) in hFcRn transgenic mice, 2.5 mg/kg intravenous [3]: 21 h; Kd ([2]; both partners purified): 160 nM |

— publication PMC4968834, “Generation and Characterization of an IgG4 Monomeric Fc Platform” (PLoS ONE, 2016)
